Laboratory results from patent US11434267B2, “Peptides having reduced toxicity that stimulate cholesterol efflux” (The Regents of the University of California, priority 2013, dated 2022).
“Also recorded” adds a separate entry of the source.

Experiments:
human plasma = assay: Cholesterol efflux activity of human plasma treated with lipid-free peptide (J774 cells); format: cell-based; conditions: plasma + 300 μg/ml peptide 5 min 4° C., diluted to 1%, cAMP treated J774
Description: (FIG. 33). To test whether CS6253 exerts anti-atherogenic effects in a biological milieu, human plasma was exposed (5 min) to lipid-free peptide. Interactions of CS6253 with HDL in plasma and activity of plasma to stimulate cholesterol efflux was assessed; the latter using J774 macrophages labeled with [3H]cholesterol. Panel A—Cholesterol efflux activity of plasma treated with lipid-free peptides. Human plasma was incubated with 300 μg/ml peptides for 5 minutes (4° C.), diluted to 1% in serum-free RPMI-1640 culture medium and immediately added to [3H]cholesterol-labeled J774 cells. […] Panel B—Induction of preβ HDL upon treatment of human plasma with CS6253. Plasma was exposed to a small amount of peptide relative to endogenous apoA-I (1:10 mole ratio, respectively) and formation of preβ HDL assessed by 2D non-denaturing gradient gel electrophoresis (NDGGE) and western blot analysis. […] The results are consistent with the production of authentic preβ HDL particles composed entirely of endogenous apoA-I.
To test whether T6991-2 exerts anti-atherogenic effects in a biological milieu, human plasma was exposed (5 min) to lipid-free peptide. Interactions of T6991-2 with HDL in plasma and activity of plasma to stimulate cholesterol efflux was assessed using J774 macrophages labeled with [3H]cholesterol. Panel A—Cholesterol efflux activity of plasma treated with lipid-free peptides. […]

C57Bl/6 mice [1] = conditions: mouse, in vivo, ip, 300 mg/kg
C57Bl/6 mice [2] = format: in vivo; conditions: 300 mg/kg IP, male chow-fed C57Bl/6 mice
Description: The high-dose cytotoxic response of ATI-5261 observed in rat, rabbit and cynomolgus monkey is additionally recapitulated in mice (FIG. 4). Male chow-fed C57bl/6 mice were injected intraperitonelly (IP) with 30 or 300 mg/kg of lipid-fee ATI-5261. Blood was collected via the retro-orbital plexus 4 h after peptide injection and plasma subsequently obtained for measurement of CPK (Panel A) and ALT and AST activities (Panel B, ALT left bars, AST, right bars). Values are means±SD, n=4 mice per group.
This example illustrates that aromatic phenylalanine residues associated with the non-polar surface of ATI-5261 contributed to the majority of the peptide toxicity (FIG. 5). […] Blood was collected via retro-orbital plexus 4 h after injection for isolation of plasma. Levels of plasma CPK (Panel A), ALT (panel B) and AST (Panel C) were determined as described in FIG. 1. Values are means±SD, n=4 mice per group.
The concentrations of plasma lipids in C57Bl/6 mice following administration of the aliphatic analogs of ATI-5261 was also determined. […] All values (mg/dl) are means±SD, n=4, determined at 4 and 6 h post treatment with peptide.

[3] = tested on: New Zealand White rabbits; assay: High-dose IV bolus toxicity of ATI-5261 in rabbits (plasma ALT, AST, TG, cholesterol); format: in vivo, rabbit
From the text: Peptides or peptidomeimetics of the invention can be evaluated for toxicity using known assays. Examples of such assays are illustrated in the Examples section. Toxicity is typically assayed in a rat, rabbit, mouse, monkey or dog model. […] Safety chemistry panels including plasma alanine aminotransferase (ALT), aspartate amino transferase (AST), and creatine kinase (CK) can then be determined in the blood. The presence of elevated levels of these enzymes in the blood compared to control normal values is indicative of toxicity. A peptide of the invention is typically considered to be non-toxic or to have little toxicity, when the results using the highest dose, 300 mg/kg in this illustrative assay, are equivalent (fall within the standard deviation) of the values measured for the control animals that received vehicle alone, or are no more than 2 or 3 times background obtained with vehicle alone. […]
Cytotoxicity of an HDL mimetic peptide ATI-5261 at high doses was evaluated in rats and rabbits (FIG. 1). […]
For the experiments in FIG. 2, male chow-fed Wistar rats (Panels A and B) were administered ATI-5261 at doses of 3, 30, and 300 mg/kg as described in FIG. 1. Plasma triglyceride (TG, Panel A) and unesterified cholesterol (Panel B) concentrations were determined enzymatically at the times indicated. […]

ABCA1 = target: T1, ABCA1 (Mus musculus, UniProt P41233); assay: ABCA1-dependent cholesterol efflux from [3H]cholesterol-labeled J774 macrophages with and without cAMP; format: cell-based; conditions: J774, cAMP vs no cAMP; 10 μg/ml lipid-free
T1 construct: treated (18 h) with a cAMP analog to induce ABCA1 protein expression; endogenous in cells; host or cells: J774 macrophages
T1 sequence (P41233 whole entry): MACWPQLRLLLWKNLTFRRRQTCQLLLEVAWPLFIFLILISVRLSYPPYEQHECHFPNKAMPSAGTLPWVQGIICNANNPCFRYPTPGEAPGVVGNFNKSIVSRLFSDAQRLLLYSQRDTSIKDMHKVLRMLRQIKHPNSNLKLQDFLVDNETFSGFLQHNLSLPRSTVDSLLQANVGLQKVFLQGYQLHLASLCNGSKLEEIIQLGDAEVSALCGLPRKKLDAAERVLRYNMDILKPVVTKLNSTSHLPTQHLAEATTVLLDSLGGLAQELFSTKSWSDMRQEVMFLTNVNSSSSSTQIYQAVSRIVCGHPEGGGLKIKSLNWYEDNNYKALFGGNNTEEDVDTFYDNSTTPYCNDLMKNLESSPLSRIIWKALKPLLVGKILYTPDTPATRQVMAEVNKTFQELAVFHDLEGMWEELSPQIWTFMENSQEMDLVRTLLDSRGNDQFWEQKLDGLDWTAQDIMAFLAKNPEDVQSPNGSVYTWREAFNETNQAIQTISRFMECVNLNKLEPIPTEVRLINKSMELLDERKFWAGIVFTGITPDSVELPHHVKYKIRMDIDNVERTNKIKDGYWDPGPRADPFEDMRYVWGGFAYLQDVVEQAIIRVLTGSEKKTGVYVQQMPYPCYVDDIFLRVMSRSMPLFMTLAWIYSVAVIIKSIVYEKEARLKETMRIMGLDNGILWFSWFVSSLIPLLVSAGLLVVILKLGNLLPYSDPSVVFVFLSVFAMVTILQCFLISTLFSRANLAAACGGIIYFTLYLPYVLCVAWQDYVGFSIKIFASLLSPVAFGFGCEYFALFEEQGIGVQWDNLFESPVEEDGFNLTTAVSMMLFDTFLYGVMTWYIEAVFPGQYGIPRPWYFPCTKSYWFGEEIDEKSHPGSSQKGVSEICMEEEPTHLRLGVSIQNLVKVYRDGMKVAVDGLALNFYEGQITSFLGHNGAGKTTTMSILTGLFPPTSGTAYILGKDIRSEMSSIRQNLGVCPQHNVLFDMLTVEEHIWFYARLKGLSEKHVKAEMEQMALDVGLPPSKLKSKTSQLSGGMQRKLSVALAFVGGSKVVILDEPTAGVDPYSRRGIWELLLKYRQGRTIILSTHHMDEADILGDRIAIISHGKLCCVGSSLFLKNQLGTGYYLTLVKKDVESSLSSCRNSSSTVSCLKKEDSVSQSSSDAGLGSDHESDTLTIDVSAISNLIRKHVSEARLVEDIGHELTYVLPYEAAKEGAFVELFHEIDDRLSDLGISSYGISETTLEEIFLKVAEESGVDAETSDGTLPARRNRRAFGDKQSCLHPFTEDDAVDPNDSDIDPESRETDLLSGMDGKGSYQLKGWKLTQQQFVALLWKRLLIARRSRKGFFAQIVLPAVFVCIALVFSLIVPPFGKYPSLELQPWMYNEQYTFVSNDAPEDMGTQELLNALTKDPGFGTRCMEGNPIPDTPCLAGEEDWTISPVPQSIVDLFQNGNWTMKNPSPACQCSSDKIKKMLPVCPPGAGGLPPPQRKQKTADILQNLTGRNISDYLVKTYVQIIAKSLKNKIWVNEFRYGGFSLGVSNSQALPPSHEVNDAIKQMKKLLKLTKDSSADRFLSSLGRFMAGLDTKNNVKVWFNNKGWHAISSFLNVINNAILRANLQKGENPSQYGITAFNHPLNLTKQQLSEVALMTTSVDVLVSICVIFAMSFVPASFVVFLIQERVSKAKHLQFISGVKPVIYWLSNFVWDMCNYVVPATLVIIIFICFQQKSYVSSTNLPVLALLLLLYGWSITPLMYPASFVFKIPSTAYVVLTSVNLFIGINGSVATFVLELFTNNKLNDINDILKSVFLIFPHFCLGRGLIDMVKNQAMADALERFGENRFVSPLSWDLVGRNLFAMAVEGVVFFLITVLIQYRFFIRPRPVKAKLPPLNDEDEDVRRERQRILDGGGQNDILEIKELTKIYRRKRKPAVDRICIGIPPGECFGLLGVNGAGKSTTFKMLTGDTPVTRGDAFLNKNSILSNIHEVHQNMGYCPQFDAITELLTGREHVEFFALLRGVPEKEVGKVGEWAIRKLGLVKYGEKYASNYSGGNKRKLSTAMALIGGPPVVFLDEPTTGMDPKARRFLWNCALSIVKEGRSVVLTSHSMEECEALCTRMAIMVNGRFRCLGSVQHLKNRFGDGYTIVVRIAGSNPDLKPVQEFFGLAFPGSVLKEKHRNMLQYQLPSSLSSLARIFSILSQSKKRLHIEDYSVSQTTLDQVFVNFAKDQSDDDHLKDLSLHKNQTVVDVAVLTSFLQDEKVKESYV

“ATI-5261: HDL mimetic peptide, parent peptide with phenylalanine and arginine residues; toxic at high doses; used as positive control (EVRSKLEEWFAAFREFAEEFLARLKS)” was tested, and the “capacity of treated plasma to stimulate cholesterol efflux via ABCA1” value (human plasma) was “possessed greater capacity to stimulate cholesterol efflux”, the “triglyceride (TG)” value (C57Bl/6 mice [1]) was “triglyceride (TG) elevation effects” and the “TG elevating effect (plasma TG, cholesterol)” value (C57Bl/6 mice [2]; 4 and 6 h) was “marked increase in plasma TG, total and unesterified (free) cholesterol (FC)”. For the same substance, the “cytotoxic/toxic response (plasma CPK, ALT, AST)” value (C57Bl/6 mice [2]; 4 h) was “High levels of cytotoxic markers”, the “plasma triglycerides and unesterified cholesterol” value ([3]; single IV bolus) was “increased plasma triglycerides and cholesterol” and the “cytotoxic response (plasma ALT, AST)” value ([3]; single IV bolus 3, 30 or 300 mg/kg) was “induced a cytotoxic response”. For the same substance, the “ABCA1-dependent cholesterol efflux activity” value (ABCA1) was “stimulated an overall greater efflux response; also recorded: stimulated a greater efflux response”.
